In US20140148356:

Legend:
[1] = biological target: HBcAg (Hepatitis B virus core protein, 21 kDa) (Hepatitis B virus) (UniProt P03146); conditions: affinity qPCR; 7.6 nM HBcAg, 1 nM DNA
[2] = biological target: HBcAg (Hepatitis B virus core protein, 21 kDa) (Hepatitis B virus) (UniProt P03146); conditions: affinity qPCR on Ni-NTA plate; 0.1 nM aptamer, 0.1-5 nM protein; 20 mM Tris-HCl pH 7.6, 5 mM KCl, 100 mM NaCl, 5 mM MgCl2, 1 mM CaCl2, RT 1 h

Chain of HBcAg (Hepatitis B virus core protein, 21 kDa) (Hepatitis B virus) (P03146 whole entry): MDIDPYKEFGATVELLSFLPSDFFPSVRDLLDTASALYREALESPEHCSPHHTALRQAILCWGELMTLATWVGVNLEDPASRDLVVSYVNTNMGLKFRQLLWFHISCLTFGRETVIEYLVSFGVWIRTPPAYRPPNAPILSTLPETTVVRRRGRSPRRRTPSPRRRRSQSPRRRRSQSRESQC

AGCAGCACAGAGGTCAGATGGTTACATGCGCAGTAGCCGACGTACTCTGGTAAAAGGTAGCCTATGCGTGCTACCGTGAA [A-38]
binding signal [1]: 7.2 % bound
Kd [2]: 0.16 nM

AGCAGCACAGAGGTCAGATGTTTCCGAGGGAGTGGAATTAGCAAGGTGGAAGTGTTTCTACCTATGCGTGCTACCGTGAA [A-18]
binding signal [1]: 8.3 % bound
Kd [2]: 0.14 nM

AGCAGCACAGAGGTCAGATGACATCTAGAACCAACGGTTCTGTTTGATGAGAATTCGGCCCCTATGCGTGCTACCGTGAA [A-19]
binding signal [1]: 1.17 % bound

AGCAGCACAGAGGTCAGATGAGGCCTGGTGATCGTGCCCAGGCCATATGAGCAAGGAACCCCTATGCGTGCTACCGTGAA [A-9]
binding signal [1]: 1 % bound

AGCAGCACAGAGGTCAGATGTTGCATACGCCAAACAAGCATTGACAAGGTAACCCTGGGCCCTATGCGTGCTACCGTGAA [A-23]
binding signal [1]: 1.45 % bound
